Publication PMC9485624

Key:
[1] = target: recombinant truncated CrrB (135-353 amino acids) (Klebsiella pneumoniae); test: not stated; purified recombinant His-tagged protein after Ni-NTA; how dimer and monomer were told apart is not stated in the text (Supplementary Figure S1)
[2] = target: recombinant truncated CrrB (135-353 amino acids) P151L mutant (Klebsiella pneumoniae); test: as above

In the case of “recombinant truncated CrrB (135-353 amino acids) (domain or fragment)”, the stoichiometry N [1] is reported as 2.
Work on “recombinant truncated CrrB (135-353 amino acids) P151L mutant (domain or fragment)” yielded a stoichiometry N [2] of 2.
